The assay deals with T1, programmed cell death ligand 1 (PD-L1) (UniProt Q9NZQ7 19-239, limits assumed, biotinylated in the yeast display assays).
T1 construct: also called PD-Li
Description: BLI, max binding signal versus PD-L1 concentration. (In general: BLI is a label-free optical method that tracks binding on a fibre tip over time.)

T1 sequence (Q9NZQ7 19-239 limits assumed): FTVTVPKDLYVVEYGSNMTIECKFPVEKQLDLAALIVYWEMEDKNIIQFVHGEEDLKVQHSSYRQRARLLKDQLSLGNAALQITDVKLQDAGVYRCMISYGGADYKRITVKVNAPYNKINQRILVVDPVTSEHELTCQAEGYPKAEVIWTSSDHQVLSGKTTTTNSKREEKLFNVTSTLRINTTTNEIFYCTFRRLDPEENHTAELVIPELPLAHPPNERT

B1: pdl1_inp_1 (purified from E. coli) (designed binder)
chain: DLEEFFEECLKEAEEVRKEVLEGKARIQIKESVRKEDPEGGTYVCGVISLGPKGGKFHVVFHKEDPEGKEETLARFEFKVEGGKVELLELKSKDPELKKLAEKYAEKLLE
notes: Expressed as a monomer; Tested by BLI; not shown: C-terminal SNAC tag and 6xHis tag from the modified pET29b+ vector
By Kd is commonly meant a measure of binding affinity in units of concentration. Lower therefore signals higher affinity. B1 came in with a dissociation constant Kd of 326 nM.

The record behind these values is US20230416726A1 (University of Washington, published 2023).
